One block for each binder: values may come before it.
Key:
Settings in all cases: both partners purified
DIP-α K10Q = molecular target: T1, DIP-α K10Q (Drosophila melanogaster); assay: SPR; Biacore T100, CM4 chip; DIPs and DIP mutants immobilised by amine coupling (760-980 RU), Dprs and Dpr mutants as analytes (three-fold dilution series, up to 81 μM, in some cases up to 27 or 9 μM); 25 °C; 10 mM Tris-HCl pH 7.2, 150 mM NaCl, 1 mM EDTA, 1 mg/mL BSA, 0.01% Tween-20; equilibrium fit, 1:1 model; for KDs > 300 μM a lower limit is listed
T1 construct: DIP-α, Drosophila melanogaster, extracellular region; source: HEK293F, transiently transfected, purified from conditioned media (Ni IMAC, SEC)

DIP-α A11T = molecular target: T2, DIP-α A11T (Drosophila melanogaster); assay: as above
T2 construct: DIP-α, Drosophila melanogaster, extracellular region; the results' sentence speaks of 'Dpr10 positions 10 and 11'; source: HEK293F, transiently transfected, purified from conditioned media (Ni IMAC, SEC)

DIP-α = molecular target: T3, DIP-α (Drosophila melanogaster); assay: as above
T3 construct: DIP-α, Drosophila melanogaster, extracellular region; The PDB entries are cited structures and may hold shorter constructs; also called blue subgroup DIP; source: HEK293F, transiently transfected, purified from conditioned media (Ni IMAC, SEC)

[1] = molecular target: T4, DIP-β (isoformG), extracellular region (Drosophila melanogaster); assay: SPR; Biacore T100, CM4 chip; DIPs and DIP mutants immobilised by amine coupling, Dprs as analytes; 25 °C; 10 mM Tris-HCl pH 7.2, 150 mM NaCl, 1 mM EDTA, 1 mg/mL BSA, 0.01% Tween-20; duplicate responses fit globally to a 1:1 model; Rmax fixed for KDs > 100 μM, lower limit listed for KDs > 300 μM
T4 construct: DIP-β, Drosophila melanogaster, isoform G as printed, extracellular region; source: HEK293F cells, transiently transfected, purified from conditioned media (Ni-IMAC, size-exclusion chromatography)

fold increase of KD over wild type (DIP-α K10Q): ~10 fold
fold increase of KD over wild type (DIP-α A11T): ~10 fold
Kd (DIP-α): 1.5 ± 0.1 µM
B1: Dpr10 (domain or fragment)
chain: YQRQSVSNNNHNNAEAKPTHAPPSHYPHGHKWNEPYFDLTMPRNITSLVGKSAYLGCRVKHLGNKTVAWIRHRDLHILTVGTYTYTTDQRFQTSYHRDIDEWTLQIKWAQQRDAGVYECQISTQPVRSYSVNLNIVDLIDAETSDIMQQYYNDDAFYIAENRVYQSSNDEFAGMFGPIQTVAVPTATILGGPDLYVDKGSTINLTCIIKFSPEPPTHIFWYHQDKVLSEETSGGRLKFKTIKSEETKSILLIYDADLLHSGKYSCYPSNTEIASIR

Kd [1]: > 500 µM
B2: Dpr10 V31K Q29E L10G {V144K Q142E L93G}, extracellular region (domain or fragment)
chain: WNEPYFDLTMPRNITSLVGKSAYLGCRVKHLGNKTVAWIRHRDGHILTVGTYTYTTDQRFQTSYHRDIDEWTLQIKWAQQRDAGVYECQISTEPKRSYSVNLNIVVPTATILGGPDLYVDKGSTINLTCIIKFSPEPPTHIFWYHQDKVLSEETSGGRLKFKTIKSEETKSILLIYDADLLHSGKYSCYPSNTEIASIR
modifications: Limits not printed (ref. 11). Start follows PDB 6NRQ entity 1 (W3 = UniProt 50); end is the end of Ig2 in the entry's features.

Kd (DIP-α): > 500 µM
B3: Dpr10 V31K Q29E L10G (domain or fragment)
chain: B2 chain
modifications: Same molecule as Dm6. Limits not printed (ref. 11). Start follows PDB 6NRQ; end is the end of Ig2 in the entry's features.
